In the supplement of paper PMC11208486:
± gives the uncertainty stated by the source.

Test: specific initial activity, cyclohex-2-enone reduction (U mg-1); higher = more active
Protocol: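 Purified His-tagged ene reductases in 50 mM sodium phosphate pH 7.4 with 0-30% (v/v) organic co-solvent. Melting temperature was measured by the ThermoFMN assay (FMN fluorescence, 20-90 °C at 1 °C/min, inflection point, triplicate). Specific initial activity was measured with 10 mM cyclohex-2-enone and 0.2 mM NAD(P)H (NADH for LacER) as A340 depletion, at room temperature (DMSO, 2-propanol, n-propanol) or 25 °C (EtOH, MeOH), in triplicate. The TsOYE Tm is above the 90 °C measurement range.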

[1] = co-solvent: 2-propanol, co-solvent concentration (% v/v): 0
[2] = co-solvent: 2-propanol, co-solvent concentration (% v/v): 5
[3] = co-solvent: 2-propanol, co-solvent concentration (% v/v): 10
[4] = co-solvent: 2-propanol, co-solvent concentration (% v/v): 15
[5] = co-solvent: 2-propanol, co-solvent concentration (% v/v): 20
[6] = co-solvent: 2-propanol, co-solvent concentration (% v/v): 25
[7] = co-solvent: 2-propanol, co-solvent concentration (% v/v): 30
[8] = co-solvent: dimethyl sulfoxide, co-solvent concentration (% v/v): 0
[9] = co-solvent: dimethyl sulfoxide, co-solvent concentration (% v/v): 5
[10] = co-solvent: dimethyl sulfoxide, co-solvent concentration (% v/v): 10
[11] = co-solvent: dimethyl sulfoxide, co-solvent concentration (% v/v): 15
[12] = co-solvent: dimethyl sulfoxide, co-solvent concentration (% v/v): 20
[13] = co-solvent: dimethyl sulfoxide, co-solvent concentration (% v/v): 25
[14] = co-solvent: dimethyl sulfoxide, co-solvent concentration (% v/v): 30
[15] = co-solvent: ethanol, co-solvent concentration (% v/v): 0
[16] = co-solvent: ethanol, co-solvent concentration (% v/v): 5
[17] = co-solvent: ethanol, co-solvent concentration (% v/v): 10
[18] = co-solvent: ethanol, co-solvent concentration (% v/v): 15
[19] = co-solvent: ethanol, co-solvent concentration (% v/v): 20
[20] = co-solvent: ethanol, co-solvent concentration (% v/v): 25
[21] = co-solvent: ethanol, co-solvent concentration (% v/v): 30
[22] = co-solvent: methanol, co-solvent concentration (% v/v): 0
[23] = co-solvent: methanol, co-solvent concentration (% v/v): 5
[24] = co-solvent: methanol, co-solvent concentration (% v/v): 10
[25] = co-solvent: methanol, co-solvent concentration (% v/v): 15
[26] = co-solvent: methanol, co-solvent concentration (% v/v): 20
[27] = co-solvent: methanol, co-solvent concentration (% v/v): 25
[28] = co-solvent: methanol, co-solvent concentration (% v/v): 30
[29] = co-solvent: n-propanol, co-solvent concentration (% v/v): 0
[30] = co-solvent: n-propanol, co-solvent concentration (% v/v): 5
[31] = co-solvent: n-propanol, co-solvent concentration (% v/v): 10
[32] = co-solvent: n-propanol, co-solvent concentration (% v/v): 15
[33] = co-solvent: n-propanol, co-solvent concentration (% v/v): 20
[34] = co-solvent: n-propanol, co-solvent concentration (% v/v): 25
[35] = co-solvent: n-propanol, co-solvent concentration (% v/v): 30

Sequence	specific initial activity [1]	specific initial activity [2]	specific initial activity [3]	specific initial activity [4]	specific initial activity [5]	specific initial activity [6]	specific initial activity [7]	specific initial activity [8]	specific initial activity [9]	specific initial activity [10]	specific initial activity [11]	specific initial activity [12]	specific initial activity [13]	specific initial activity [14]	specific initial activity [15]	specific initial activity [16]	specific initial activity [17]	specific initial activity [18]	specific initial activity [19]	specific initial activity [20]	specific initial activity [21]	specific initial activity [22]	specific initial activity [23]	specific initial activity [24]	specific initial activity [25]	specific initial activity [26]	specific initial activity [27]	specific initial activity [28]	specific initial activity [29]	specific initial activity [30]	specific initial activity [31]	specific initial activity [32]	specific initial activity [33]	specific initial activity [34]	specific initial activity [35]
MNPKYKPLFEPFTFKSGVTINNRIAVAPMTHYASNEDGTISEAELDYIIPRSKEMGMVITACANVTPDGKAFPGQPAIHDDSNIPGLKKLAQAIQAQGAKAVVQIHHGGIECPSELVPQQDVVGPSDVFDNGKQIARALTEEEVENIVKAFGEATRRAIEAGFDGVEIHGANGYLIQQFYSPKTNQRTDRWGGSDEKRLAFPLAIVDEVKKAASEHAKGAFLVGYRLSPEEPETPGLTMTETYTLVDALGDKELDYLHISLMDVNSKARRGADPTRTRMDLLNERVGNKVPLIAVGSIHSADDALAVIENGIPLVAMGREILVDPNWTVKVKEGREKQIETVIKGTDKEKYHLPEPLWQAIVNTQGWVPYKD	5.75 ± 0.28	6.02 ± 0.29	6.11 ± 0.24	6.21 ± 0.37	6.17 ± 0.29	5.81 ± 0.49	5.26 ± 0.24	4.09 ± 0.12	4.4 ± 0.11	4.34 ± 0.17	4.41 ± 0.29	4.2 ± 0.38	4.35 ± 0.44	4.2 ± 0.46	5.73 ± 0.43	5.9 ± 0.14	6.22 ± 0.39	6.67 ± 0.56	6.21 ± 0.7	6.62 ± 0.84	5.96 ± 0.43	5.71 ± 0.54	6.14 ± 0.51	5.62 ± 0.49	5.36 ± 0.24	5.05 ± 0.21	5.09 ± 0.59	4.27 ± 0.27	5.25 ± 0.46	5.2 ± 0.41	4.82 ± 0.17	4.55 ± 0.2	4.07 ± 0.42	3.69 ± 0.3	2.94 ± 0.14
MSFVKDFKPQALGDTNLFKPIKIGNNELLHRAVIPPLTRMRALHPGNIPNRDWAVEYYTQRAQRPGTMIITEGAFISPQAGGYDNAPGVWSEEQMVEWTKIFNAIHEKKSFVWVQLWVLGWAAFPDNLARDGLRYDSASDNVFMDAEQEAKAKKANNPQHSLTKDEIKQYIKEYVQAAKNSIAAGADGVEIHSANGYLLNQFLDPHSNTRTDEYGGSIENRARFTLEVVDALVEAIGHEKVGLRLSPYGVFNSMSGGAETGIVAQYAYVAGELEKRAKAGKRLAFVHLVEPRVTNPFLTEGEGEYEGGSNDFVYSIWKGPVIRAGNFALHPEVVREEVKDKRTLIGYGRFFISNPDLVDRLEKGLPLNKYDRDTFYQMSAHGYIDYPTYEEALKLGWDKK	1.22 ± 0.04	1.54 ± 0.08	1.7 ± 0.08	1.86 ± 0.06	1.8 ± 0.1	2 ± 0.09	2.05 ± 0.07	1.31 ± 0.12	1.43 ± 0.16	1.35 ± 0.05	1.31 ± 0.14	1.38 ± 0.06	1.32 ± 0.13	1.32 ± 0.08	1.49 ± 0.06	1.58 ± 0.11	1.78 ± 0.1	1.97 ± 0.14	2 ± 0.17	2.1 ± 0.04	2.46 ± 0.11	1.55 ± 0.06	1.72 ± 0.05	1.81 ± 0.07	2.07 ± 0.07	2.23 ± 0.15	2.42 ± 0.11	2.58 ± 0.11	1.3 ± 0.03	1.59 ± 0.06	1.83 ± 0.2	1.81 ± 0.18	1.86 ± 0.15	1.84 ± 0.13	1.96 ± 0.14
